Experimental data as given in paper PMC2953525, “Subtle Alterations in PCNA-Partner Interactions Severely Impair DNA Replication and Repair” (PLoS Biology, 2010).

Key:
Msh6 = experiment: Yeast two hybrid (Y2H) analysis of PCNA-partner interaction; format: binding; conditions: for Binding of PCNA Mutants to Target Partners: Msh6 (Y2H): YRG2 strain, growth on selective agar plates lacking histidine, growth similar to WT PCNA denoted as 1; for Binding of PCNA Mutants to Target Partners: Msh6, fold increase or decrease (quantitative Y2H): footnote c: generation time in liquid selective media lacking histidine relative to cells expressing WT PCNA, average of at least 3 independent experiments
Procedure: (§1) For the Y2H assay, we used the YRG2 host strain, shown to be highly efficient in coupling the strength of protein-protein interactions with growth on media lacking histidine. Selected PCNA mutants were characterized for their ability to bind each of 12 main PCNA partners to obtain specificity profiles (Table 1, Table S1, and Figures S4–S5). […] However, in some cases a strong trade-off between the bindings of different partners was observed.
(§2) Y2H analysis was performed using the Yeast Two Hybrid Phagemid vector kit (Stratagene), following the manufacturer's instructions. The pAD-PCNA-WT/mutant plasmids were used as bait while plasmids encoding 12 different PCNA partners (Table 1 and Table S1) were used as prey. The YRG2 host strain (Stratagene) was cotransformed with pAD-PCNA WT/mutant and pBD-partner plasmids in all possible combinations using the LiAC method. Single transformants were grown in liquid SC-Leu-Trp to O.D600 10, washed twice with DDW, and diluted to an initial OD600 of 0.3. A series of 10-fold serial dilutions was then spotted onto selective SC-Leu-Trp-His plates and incubated at 30°C for 3 d. For quantitative Y2H, the generation time of the indicated mutants and their respective partners were calculated from their growth curves in liquid SC-Leu-Trp-His media. Cells were grown overnight in SC-Leu-Trp, washed twice with ddH2O, and diluted by a factor of 1∶50 into 10 ml of pre-warmed SC-Leu-Trp-His. O.D600 measurements of the cultures were taken at the indicated time; the generation time (τ) was calculated from the growth curves according to the equation ODt = OD0×2^t/τ. The generation time calculated for each culture is an average of at least 3 independent experiments.

Pol32 = experiment: as above; format: binding; conditions: for Binding of PCNA Mutants to Target Partners: Pol32 (Y2H): YRG2 strain, growth on selective agar plates lacking histidine, growth similar to WT PCNA denoted as 1; for Binding of PCNA Mutants to Target Partners: Pol32, fold increase or decrease (quantitative Y2H): footnote c: generation time in liquid selective media lacking histidine relative to cells expressing WT PCNA, average of at least 3 independent experiments
Procedure: as §1, §2

Rad27 = experiment: as above; format: binding
Procedure: as §1, §2

Rad30 = experiment: as above; format: binding; conditions: for Binding of PCNA Mutants to Target Partners: Rad30 (Y2H): YRG2 strain, growth on selective agar plates lacking histidine, growth similar to WT PCNA denoted as 1
Procedure: as §1, §2

Ung1 = experiment: as above; format: binding; conditions: for Binding of PCNA Mutants to Target Partners: Ung1 (Y2H): YRG2 strain, growth on selective agar plates lacking histidine, growth similar to WT PCNA denoted as 1
Procedure: as §1, §2

CAN1 gene = experiment: Spontaneous mutation rate, CAN1 reporter assay, fluctuation analysis; format: cell-based, yeast; conditions: for Spontaneous Mutation Rate Can^R (Fold Increase): Table 1, compared to the WT POL30 strain
Description: It was previously shown that PCNA contains another site of regulation (i.e. K164) that is modulated by ubiquitination or SUMOylation (Figure 1B) and that is crucial for the recruitment of TLS polymerases,[37]. To test whether the K164 regulatory site is active in the PCNA mutant strains, we examined the spontaneous mutation rate in these strains (Table 1). Increase in spontaneous mutation rate can indicate the recruitment of TLS polymerases to PCNA through K164 ubiquitination,[37]. Alternatively, these mutants can indirectly affect the spontaneous mutation rate by reducing DNA replication processivity and causing replication fork stalling, thereby leading to TLS recruitment. These mutants can also indirectly alter Pol-δ or Pol-ε proofreading leading to TLS recruitment. We measured the spontaneous mutation rate using the CAN1 reporter assay by monitoring the ability of the PCNA mutant strains to grow in the presence of canavanine, a toxic analogue of arginine. […] To examine whether Polζ, the major TLS polymerase,[37], is recruited in vivo to PCNA mutants showing increased affinity for Rad27 and Pol32 (pol30-Rad27E6 and pol30-Pol32E5, Table 1) upon K164 ubiquitination, we measured the spontaneous mutation rates of these mutant strains on the background of either mutated rev3 encoding the catalytic subunit of Polζ or mutated rad18 encoding the K164 ubiquitin ligase or K164R mutation (Figure 7, Table 2).
(§3) Novel haploids containing PCNA mutants were generated using the plasmid shuffling method. Briefly, a pol30::KanMX magic marker heterozygote diploid strain BY4743 (Open Biosystem) was transformed with plasmid pRS316-POL30. Following dissection of the diploid, a haploid containing the CAN+ gene and plasmid pRS316-POL30 as a sole source of PCNA was generated. This host strain was transformed with selected pRS315-pol30 mutants, plated on SC-Ura-Leu plates, followed by replica plating to SC-Leu+5FOA plates. Haploids, containing PCNA mutants as a sole source, were further verified by plating on either SC-Leu or SC-Ura plates. For testing selected PCNA mutants, a haploid containing rad27::HYG, rad30::HYG, pol32::HYG, msh6::HYG, or ung1::HYG were generated using plasmid pAG32 by conventional genetic approaches. Growth of the PCNA mutant strains in the presence of 120 mM HU (Toronto Research Chemicals) or 0.02% MMS (Sigma) was performed as described. To examine the effects of partner overexpression on pol30 mutant strains, these strains were transformed with various plasmids containing GST-tagged PCNA partner encoding genes under the control of a GAL1/10 inducible promoter, as previously described. Overnight cultures were plated in serial dilutions on SC-Ura containing either glucose or galactose with or without DNA-damaging agents, as described above.
The mutation rates for the different pol30 mutant strains described in this study were determined by fluctuation test analysis using the Lea and Coulson method,[48]. The different strains were plated as single colonies on SC-Leu plates and allowed to grow for 3 d at 30°C. At least 25 single colonies from each strain were excised from the plate and resuspended in 1 ml of sterile water to an O.D600 of 0.7. Appropriate dilutions of the cells were then plated on SC-Leu and SC-Leu-Arg+canavanine ([…]) to obtain the number of viable cells (Nt) and the number of canavanine-resistant cells (r), respectively. Using the Lea and Coulson method, the number of mutations (m) per colony was derived from the number of canavanine resistant-colonies (r) across parallel cultures, using the following equation: […]. The m values were then used to calculate the mutation rate, M, using the following equation: M = m/Nt, where Nt is the average number of viable cells per plating. The different M values were sorted to obtain the median. […]

yeast strains = experiment: Growth sensitivity of PCNA mutant strains to MMS and HU; format: cell-based; conditions: for effect of overexpression of Rad27, Rad30, Pol32, and Msh6 on growth sensitivity to DNA damaging agents: Figure S9, GAL1/10 inducible GST-tagged partners
Description: Next, we examined the sensitivity of strains containing single deletions of each of the five different partners on a WT PCNA background. […] We first examined whether the rad27 deletion can suppress the lethality of a strain containing the pol30-Rad27L1 or pol30-Rad27L2 mutants (Figure 6A). […] In addition, we examined whether rad30 deletion, ung1 deletion, and msh6 deletion can suppress the phenotypes of the pol30 mutants with increased affinity to Rad30, Ung1, and Msh6, respectively (Figure 6B–D). […] However, since the suppression of the strain phenotypes was not complete, additional factors, such as minor effects of the mutations on other PCNA-partner interactions, may play a partial role in the sensitivity phenotype of the examined pol30 mutants. […] We also examined whether overexpression of different partners can suppress the growth sensitivity of the pol30 mutants, however no suppression was observed (Figure S9).
as §3

[1] = footnote c: generation time in liquid selective media lacking histidine relative to cells expressing WT PCNA, average of at least 3 independent experiments

| Molecule | Binding of PCNA Mutants to Target Partners: Msh6 (Y2H) (Msh6) | Binding of PCNA Mutants to Target Partners: Pol32 (Y2H) (Pol32) | Binding of PCNA Mutants to Target Partners: Rad27 (Y2H) (Rad27; YRG2 strain, growth on selective agar plates lacking histidine, growth similar to WT PCNA denoted as 1) | Binding of PCNA Mutants to Target Partners: Rad30 (Y2H) (Rad30) | Binding of PCNA Mutants to Target Partners: Ung1 (Y2H) (Ung1) | Fold Increase Relative to WT (mutation rate, CAN1 locus) (CAN1 gene; Table 2) [fold] | Mutation Rate (CAN1 locus) (CAN1 gene; Table 2, median, brackets = 95% confidence interval, at least 25 independent determinations) | effect of overexpression of Rad27, Rad30, Pol32, and Msh6 on growth sensitivity to DNA damaging agents (yeast strains) | Binding of PCNA Mutants to Target Partners: Msh6, fold increase or decrease (quantitative Y2H) (Msh6) | Spontaneous Mutation Rate Can^R (Fold Increase) (CAN1 gene) [fold] | Binding of PCNA Mutants to Target Partners: Pol32, fold increase or decrease (quantitative Y2H) (Pol32) | Binding of PCNA Mutants to Target Partners: Rad27, fold increase or decrease (quantitative Y2H) (Rad27; [1]) | Binding of PCNA Mutants to Target Partners: Rad30, fold increase or decrease (quantitative Y2H) (Rad30; [1]) | Binding of PCNA Mutants to Target Partners: Ung1, fold increase or decrease (quantitative Y2H) (Ung1; [1]) | effect of msh6 deletion on spontaneous mutation rate (CAN1 gene; Figure 6D) | effect of rad27 deletion on growth sensitivity of the mutant strain (yeast strains; Figure S8, parent vs rad27-deleted strains) |
| --- | --- | --- | --- | --- | --- | --- | --- | --- | --- | --- | --- | --- | --- | --- | --- | --- |
| POL30: wild-type yeast PCNA (POL30), IDCL sequence DIDADFLKIEEL | 1 | 1 | 1 | 1 | 1 | 1 | 1.5×10^−7 [1.5, 2.2] | did not reduce the growth sensitivity | – | – | – | – | – | – | – | – |
| pol30-Msh6E6: PCNA mutant evolved for Msh6, IDCL sequence DYDKDLLKIIEL (protein, left off: Gal4 activation domain, end not stated, kept) MLEAKFEEASLFKRIIDGFKDCVQLVNFQCKEDGIIAQAVDDSRVLLVSLEIGVEAFQEYRCDHPVTLGMDLTSLSKILRCGNNTDTLTLIADNTPDSIILLFEDTKKDRIAEYSLKLMDYDKDLLKIIELQYDSTLSLPSSEFSKIVRDLSQLSDSINIMITKETIKFVADGDIGSGSVIIKPFVDMEHPETSIKLEMDQPVDLTFGAKYLLDIIKGSSLSDRVGIRLSSEAPALFQFDLKSGFLQFFLAPKFNDEE | – | 1 | – | 1 | 1 | – | – | – | 1.4 fold | 4.1 | – | – | – | – | – | – |
| pol30-79: previously studied PCNA mutant with decreased partner binding, IDCL sequence DIDADFAKAEEL (protein, left off: Gal4 activation domain, end not stated, kept) MLEAKFEEASLFKRIIDGFKDCVQLVNFQCKEDGIIAQAVDDSRVLLVSLEIGVEAFQEYRCDHPVTLGMDLTSLSKILRCGNNTDTLTLIADNTPDSIILLFEDTKKDRIAEYSLKLMDIDADFAKAEELQYDSTLSLPSSEFSKIVRDLSQLSDSINIMITKETIKFVADGDIGSGSVIIKPFVDMEHPETSIKLEMDQPVDLTFGAKYLLDIIKGSSLSDRVGIRLSSEAPALFQFDLKSGFLQFFLAPKFNDEE | – | – | – | – | – | – | – | did not reduce the growth sensitivity | 0.4 ^c fold | 2.2 | 0.3 ^c fold | 0.5 ^c fold | 0.4 ^c fold | 0.3 ^c fold | – | – |
| pol30-Pol32E9 (protein, left off: Gal4 activation domain, end not stated, kept) MLEAKFEEASLFKRIIDGFKDCVQLVNFQCKEDGIIAQAVDDSRVLLVSLEIGVEAFQEYRCDHPVTLGMDLTSLSKILRCGNNTDTLTLIADNTPDSIILLFEDTKKDRIAEYSLKLMDNDVDSLKIIELQYDSTLSLPSSEFSKIVRDLSQLSDSINIMITKETIKFVADGDIGSGSVIIKPFVDMEHPETSIKLEMDQPVDLTFGAKYLLDIIKGSSLSDRVGIRLSSEAPALFQFDLKSGFLQFFLAPKFNDEE | 1 | – | – | 1 | 1 | – | – | – | – | 4 | 1.3 fold | – | – | – | – | – |
| pol30-Msh6E2: PCNA mutant evolved for Msh6, IDCL sequence DYDRDMLKISEL (protein, left off: Gal4 activation domain, end not stated, kept) MLEAKFEEASLFKRIIDGFKDCVQLVNFQCKEDGIIAQAVDDSRVLLVSLEIGVEAFQEYRCDHPVTLGMDLTSLSKILRCGNNTDTLTLIADNTPDSIILLFEDTKKDRIAEYSLKLMDYDRDMLKISELQYDSTLSLPSSEFSKIVRDLSQLSDSINIMITKETIKFVADGDIGSGSVIIKPFVDMEHPETSIKLEMDQPVDLTFGAKYLLDIIKGSSLSDRVGIRLSSEAPALFQFDLKSGFLQFFLAPKFNDEE | – | 1 | – | 1 | 1 | – | – | – | 1.4 ^c fold | 7.3 | – | – | – | – | Suppression | only weak effect |
